# Source: publication PMC10786891, “Massively parallel profiling of RNA-targeting CRISPR-Cas13d”
# Where a chain is given by its changes, count along the chain named. Names may count otherwise.
# B1: target 1 insA 3' of 21,insU 3' of 7 (mixed)
# RNA 1: CACCCGUGCAAAAAUGCAGGGGUCUAAAACUGAGCGGAUAACCUCUCUAUGG
# RNA 2: GGGAAUGGAUCCACAUCUACGAAUUCGUACCAAUAGAGAGGUUAUCUCGCUCACCGAGAUCGGAAGAGCACACGU
# B2: target 1 insA 3' of 15,insC 3' of 14 (mixed)
# RNA 1: B1 RNA 1
# RNA 2: GGGAAUGGAUCCACAUCUACGAAUUCGUACCAUAGAGAACGGUUAUCCGCUCACCGAGAUCGGAAGAGCACACGU
# B3: target 1 insA 3' of 11,insG 3' of 3 (mixed)
# RNA 1: B1 RNA 1
# RNA 2: GGGAAUGGAUCCACAUCUACGAAUUCGUACCAUAGAGAGGUAUAUCCGCUGCACCGAGAUCGGAAGAGCACACGU
# B4: target 1 C2A,C4U (mixed)
# RNA 1: B1 RNA 1
# RNA 2: GGGAAUGGAUCCACAUCUACGAAUUCGUACCAUAGAGAGGUUAUCCGUUAACCGAGAUCGGAAGAGCACACGU
# B5: target 1 insU 3' of 13,insG 3' of 8 (mixed)
# RNA 1: B1 RNA 1
# RNA 2: B2 RNA 2 with A39G, C40U, G42U, U44A, A45U, U46G
# B6: target 1 insA 3' of 19,insA 3' of 13 (mixed)
# RNA 1: B1 RNA 1
# RNA 2: B2 RNA 2 with G35A, A36G, G37A, A38G, C40G, G41A
# B7: target 1 insA 3' of 22,insA 3' of 17 (mixed)
# RNA 1: B1 RNA 1
# RNA 2: B2 RNA 2 with C31A, A32C, U33A, A34U, G35A, A36G, G37A, A39G, C40A
# B8: target 1 G12U,A16C (mixed)
# RNA 1: B1 RNA 1
# RNA 2: B4 RNA 2 with A36C, G40U, U48C, A50C
# B9: target 1 insU 3' of 22,insA 3' of 6 (mixed)
# RNA 1: B1 RNA 1
# RNA 2: B1 RNA 2 with C31U, A32C, U47C, C48A
# B10: target 1 insA 3' of 12,insG 3' of 10 (mixed)
# RNA 1: B1 RNA 1
# RNA 2: B2 RNA 2 with A39G, C40G, G41A, G42U, U44G
# B11: target 1 C21A,C22A (mixed)
# RNA 1: B1 RNA 1
# RNA 2: B4 RNA 2 with C30A, C31A, U48C, A50C
# B12: target 1 A1C,C7G (mixed)
# RNA 1: B1 RNA 1
# RNA 2: B4 RNA 2 with C45G, U48C, A50C, A51C
# B13: target 1 insA 3' of 22,insU 3' of 9 (mixed)
# RNA 1: B1 RNA 1
# RNA 2: B1 RNA 2 with C31A, A32C, C46U, U47C
# B14: target 1 insU 3' of 13,insA 3' of 3 (mixed)
# RNA 1: B1 RNA 1
# RNA 2: B3 RNA 2 with G40U, U41G, A42U, G51A
# B15: target 1 insU 3' of 22,insG 3' of 9 (mixed)
# RNA 1: B1 RNA 1
# RNA 2: B1 RNA 2 with C31U, A32C, U45G, C46U, U47C
# B16: target 1 insC 3' of 15,insC 3' of 14 (mixed)
# RNA 1: B1 RNA 1
# RNA 2: B2 RNA 2 with A38C
# B17: target 1 insU 3' of 5,insG 3' of 3 (mixed)
# RNA 1: B1 RNA 1
# RNA 2: B3 RNA 2 with A42U, U43A, A44U, U45C, C47G, G48U
# B18: target 1 insU 3' of 15,insG 3' of 3 (mixed)
# RNA 1: B1 RNA 1
# RNA 2: B3 RNA 2 with A38U, G39A, U41G, A42U
# B19: target 1 insU 3' of 6 (mixed)
# RNA 1: B1 RNA 1
# RNA 2: GGGAAUGGAUCCACAUCUACGAAUUCGUACCAUAGAGAGGUUAUCCUGCUCACCGAGAUCGGAAGAGCACACGU
# B20: target 1 U3A,G12C (mixed)
# RNA 1: B1 RNA 1
# RNA 2: B4 RNA 2 with G40C, U48C, U49A, A50C
# B21: target 1 insC 3' of 18,insA 3' of 17 (mixed)
# RNA 1: B1 RNA 1
# RNA 2: B2 RNA 2 with G35C, A36G, G37A, A39G, C40A
# B22: target 1 A9G,G15A (mixed)
# RNA 1: B1 RNA 1
# RNA 2: B4 RNA 2 with G37A, A43G, U48C, A50C
# B23: target 1 insA 3' of 6,insG 3' of 4 (mixed)
# RNA 1: B1 RNA 1
# RNA 2: B3 RNA 2 with A42U, U43A, A44U, U45C, C47A, U50G, G51U
# B24: target 1 insG 3' of 19,insU 3' of 9 (mixed)
# RNA 1: B1 RNA 1
# RNA 2: B1 RNA 2 with A33U, U34G, C46U, U47C
# B25: target 1 C7G (mixed)
# RNA 1: B1 RNA 1
# RNA 2: B4 RNA 2 with C45G, U48C, A50C
# B26: target 1 A1G,C7G (mixed)
# RNA 1: B1 RNA 1
# RNA 2: B4 RNA 2 with C45G, U48C, A50C, A51G
# B27: target 1 insG 3' of 4,insA 3' of 4 (mixed)
# RNA 1: B1 RNA 1
# RNA 2: B2 RNA 2 with A39G, C40G, G41U, G42U, U43A, A45C, U46C, C47G, C50A
# B28: target 1 C7A,A20U (mixed)
# RNA 1: B1 RNA 1
# RNA 2: B4 RNA 2 with A32U, C45A, U48C, A50C
# B29: target 1 insG 3' of 19 (mixed)
# RNA 1: B1 RNA 1
# RNA 2: GGGAAUGGAUCCACAUCUACGAAUUCGUACCAUGAGAGAGGUUAUCCGCUCACCGAGAUCGGAAGAGCACACGU
# Biological target: T1, EsCas13d, nuclease-dead (Eubacterium siraeum, UniProt B0MS50, R295A;H300A;R849A;H854A)
# T1 sequence: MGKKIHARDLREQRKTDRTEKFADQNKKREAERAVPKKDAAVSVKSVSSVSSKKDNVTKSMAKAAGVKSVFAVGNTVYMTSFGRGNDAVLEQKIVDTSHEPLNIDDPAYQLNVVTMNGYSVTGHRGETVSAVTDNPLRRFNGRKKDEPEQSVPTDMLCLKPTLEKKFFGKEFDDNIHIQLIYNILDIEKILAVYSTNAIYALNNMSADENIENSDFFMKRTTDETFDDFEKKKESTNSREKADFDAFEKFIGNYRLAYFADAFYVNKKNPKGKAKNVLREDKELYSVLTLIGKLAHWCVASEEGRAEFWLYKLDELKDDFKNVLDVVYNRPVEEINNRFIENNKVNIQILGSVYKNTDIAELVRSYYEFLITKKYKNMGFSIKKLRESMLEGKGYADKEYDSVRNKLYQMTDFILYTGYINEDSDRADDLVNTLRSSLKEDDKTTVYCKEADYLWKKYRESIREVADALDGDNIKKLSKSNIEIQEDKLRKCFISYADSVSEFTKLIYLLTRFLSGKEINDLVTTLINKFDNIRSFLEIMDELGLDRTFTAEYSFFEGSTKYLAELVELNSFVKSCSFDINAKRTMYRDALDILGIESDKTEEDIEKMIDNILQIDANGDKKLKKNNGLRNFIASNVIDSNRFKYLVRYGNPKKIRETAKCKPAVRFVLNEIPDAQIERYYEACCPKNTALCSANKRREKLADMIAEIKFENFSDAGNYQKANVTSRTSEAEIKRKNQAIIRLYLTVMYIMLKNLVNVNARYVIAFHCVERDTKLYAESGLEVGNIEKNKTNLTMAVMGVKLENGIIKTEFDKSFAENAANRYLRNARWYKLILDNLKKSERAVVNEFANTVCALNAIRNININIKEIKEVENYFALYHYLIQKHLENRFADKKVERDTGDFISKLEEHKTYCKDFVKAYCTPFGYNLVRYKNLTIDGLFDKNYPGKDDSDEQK
# Assay: crRNA (strand 1, pre-loaded); Mg2+; 40 mM Tris-HCl pH 7.5, 150 mM NaCl, 6 mM MgCl2, 1 mM DTT, 0.1% Tween-20, 0.2 mg/ml BSA; 25 C; 10 min per concentration, then washed
# Details: tags: His6-TwinStrep-SUMO cleaved; N-terminal SNAP kept (SNAP-Surface 488); label: 3' end held by stalled T7 RNA polymerase
row,Binder,Kd [nM]
1,B1,40.7 ± 3.1
2,B2,14.8 ± 0.7
3,B3,12.1 ± 0.6
4,B4,33.5 ± 3.5
5,B5,11.9 ± 1.3
6,B6,17.9 ± 2
7,B7,27.5 ± 2
8,B8,76 ± 14
9,B9,55 ± 16
10,B10,29.2 ± 3.2
11,B11,36 ± 5
12,B12,8.8 ± 0.7
13,B13,21.6 ± 1.5
14,B14,24 ± 3.1
15,B15,76 ± 12
16,B16,12 ± 1
17,B17,12.9 ± 0.9
18,B18,6.99 ± 0.32
19,B19,12.8 ± 0.7
20,B20,8.5 ± 0.4
21,B21,50 ± 6
22,B22,11.6 ± 0.7
23,B23,12.7 ± 0.6
24,B24,92 ± 34
25,B25,8.8 ± 0.5
26,B26,9.2 ± 0.9
27,B27,4.63 ± 0.25
28,B28,45 ± 5
29,B29,50 ± 4
